Results taken from patent US20200308299A1, “ANTI-GPC-1 ANTIBODY” (National University Corporation Kochi University, priority 2017, published 2020).

T1: Recombinant human Glypican-1 protein (Homo sapiens, UniProt P35052)
T1 construct: purchased R&D systems 4519-GP-050
T1 sequence (P35052 24-530 limits assumed): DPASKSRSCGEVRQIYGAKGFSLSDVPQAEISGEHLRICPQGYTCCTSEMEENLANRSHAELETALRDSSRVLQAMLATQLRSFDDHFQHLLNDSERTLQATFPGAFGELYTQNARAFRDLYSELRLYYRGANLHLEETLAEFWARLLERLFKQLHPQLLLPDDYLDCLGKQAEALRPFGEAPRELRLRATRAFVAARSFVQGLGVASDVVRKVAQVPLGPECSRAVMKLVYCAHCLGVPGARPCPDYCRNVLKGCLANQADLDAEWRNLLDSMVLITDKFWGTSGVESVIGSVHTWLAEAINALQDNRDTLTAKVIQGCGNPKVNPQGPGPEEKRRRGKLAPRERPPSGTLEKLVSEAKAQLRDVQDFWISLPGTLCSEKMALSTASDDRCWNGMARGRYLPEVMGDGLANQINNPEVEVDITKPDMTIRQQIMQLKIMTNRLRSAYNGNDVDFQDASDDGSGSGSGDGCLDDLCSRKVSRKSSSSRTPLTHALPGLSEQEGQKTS


How the values were obtained:
LLC-mGPC1-16 = test: In vivo efficacy test on GPC1 ADC, mouse syngenic model using mGPC1 expressing LLC cell strain
Excerpt: A mouse model (syngenic mouse) with GPC1 expressed in normal cells that is consistent with GPC1 expressed from cancer cells (i.e., both mouse GPC1) can be prepared by grafting the cell strain expressing mouse GPC1 established in Example 16 into mice. The efficacy and safety can be more accurately evaluated in an experiment using such a mouse model.
FIG. 55 schematically depicts the test in this Example. Specifically, 5.0×10^6 cells of LLC-mGPC1-16 were subcutaneously grafted into female C57BL/6 mice. […] The tumor volume and body weight were measured on day 0, day 4, day 8, day 12, day 16, day 20, and day 24.

[1] = biological target: T1, Recombinant human Glypican-1 protein; test: Antigen affinity analysis by ELISA on immobilized recombinant human GPC1; assay type: binding; details: for affinity to antigen (ELISA, OD 450 nm): recombinant human GPC1 coated at 2.5 μg/mL
Method: The buffer used in this Example was prepared as follows.
The primary antibodies used in this Example were prepared. GPC1-CL-MMAF and anti-GPC1 monoclonal antibodies (01a033) were diluted stepwise to 100, 20, 4, 0.8, 0.16, 0.032, 0.0064, 0.00128, 0.000256, 0.0000512, and 0.00001024 nM with a dilution buffer. Recombinant human Glypican-1 proteins (CF, model number: 4519-GP-050, volume: 50 μg) were used as the antigen.
Recombinant human GPC1 was diluted to 2.5 μg/mL with PBS (−) and added to 64 wells of Immuno 96 well MicroWell Solid Plate (Maxisorp, Nunc) at 50 μL/well, and the plate was sealed. The plate was shaken, and liquid was confirmed to spread throughout the plate. Next, the following procedure was followed.
*Dilute (1) GPC1-CL-MMAF and (2) anti-GPC1 monoclonal antibody (01a033) with a dilution buffer in a 10-fold dilution series from 100 nM, and add the mixture to the 96-well microplate at 100 μL/well.
*Dilute Anti-Mouse IgG (H+L) Antibody, Human Serum Adsorbed and Peroxidase labeled (KPL, cat. No.: 474-1806) with a dilution buffer (10% Block Ace) to 0.2 μg/ml (prepare a 5000-fold dilution upon use), and add the mixture to the 96-well microplate at 100 μL/well.
*Return TMB (SurModics, TMBW-1000-01) to normal temperature before use, and add the TMB to the 96-well microplate at 100 μL/well.
*Measure absorbance at 450 nm.
*Analyze data with GraphPad Prism 6.04.

LLC-control-7 cells = test: In vitro ADC assay, LLC-control-7 cells; assay type: cell-based; details: does not express mouse GPC-1, 72 hours
Method: An mGPC1 expression vector (pcDNA3.1-mGPC1) and control vector (pcDNA3.1V5/His) were transfected using Lipofectamine® 2000 into LLC cell strain (mouse lung cancer cell strain). Cells subjected to gene transfer were selected by adding G418 to a medium, and the formed colony was picked up. The expression of mGPC1 was analyzed by FACS using anti-GPC1 antibody clone 01a033. LLC-mGPC1-16 cells were established as an mGPC1 stable expression strain, and LLC-control-7 was established as the control.
Preparation of a conjugate of mouse anti-glypican-1 mAb (01a033), mouse IgG2a (biolegend #400224) as a control, and mc-vc-PAB-MMAF was commissioned to MORADEC. An anticancer agent was conjugated to a cysteine residue via a cleavable linker. The DAR (drug-antibody ratio) was as follows. […]
RPMI1640+10% FBS+100 U/ml penicillin+100 μg/ml streptomycin was used as the medium. […] (3) After 72 hours of culturing, CellTiter-Glo™ Luminescence Cell Viability Assay reagent (Promega) was added and mixed at 100 μL/well. (4) Measurements were taken with a plate reader. […]
The IC50 values were calculated from the following equation (Hossain M M, Hosono-Fukao T, Tang R, Sugaya N, van Kuppevelt T H, Jenniskens G J, Kimata K, Rosen S D, Uchimura K (2010) Direct detection of HSulf-1 and HSulf-2 activities on extracellular heparan sulphate and their inhibition by PI-88. Glycobiology […]: 175-186.) […]

ME180 cell strain = test: In vivo efficacy test on GPC1 ADC using cervical cancer cell strain ME180 in SCID mice; set-up: species or system mouse
Method: Specifically, 1.0×10^6 cells of ME180 cell strain were subcutaneously grafted into female SCID mice. […] The tumor volume and body weight were measured on day 0, day 4, day 8, day 12, day 16, day 20, day 24, day 28, and day 32.
After subcutaneous tumorigenesis of ME180, (1) PBS, (2) control ADC at 10 mg/kg, and (3) GPC1-ADC at 10 mg/kg were administered once into the tail vein. The tumor was extracted after 24 hours. After deparaffinization of a section of a paraffin embedded tissue, the slice was dehydrated with alcohol. Immunohistochemical staining on Phospho-Histon H3 (Ser10) was performed by using an anti-Phospho-Histon H3 (Ser10) antibody (Cell Signaling Technology: #9701) and ChemMate Envision kit HRP 500T (Dako: K5007).

Row | Molecule | antitumor effect against tumor expressing mouse GPC-1 (LLC-mGPC1-16; 1, 3, 10 mg/kg) | affinity to antigen (ELISA, OD 450 nm) [1] | effect of suppressing growth against LLC-control-7 (LLC-control-7 cells) | tumor growth (LLC-mGPC1-16; 1 mg/kg iv day 0, 4, 8, 12, compared to the control group) | tumor growth (LLC-mGPC1-16; 3 mg/kg iv day 0, 4, 8, 12) | tumor growth (LLC-mGPC1-16; 10 mg/kg iv day 0, 4, 8, 12) | body weight (LLC-mGPC1-16; 10 mg/kg, tended to recover after 15 days from the start of administration) | toxicity (LLC-mGPC1-16; syngenic mice, 1, 3, 10 mg/kg) | affinity level of ADC compared with unlabeled antibody ([1]; 01a033 versus 01a033 ADC) | antitumor effect (tumor volume, tumor weight day 32) (ME180 cell strain; 1 mg/kg iv day 0, 4, 8, 12) | antitumor effect (tumor volume, tumor weight day 32) (ME180 cell strain; 3 mg/kg iv day 0, 4, 8, 12) | antitumor effect (tumor volume, tumor weight day 32) (ME180 cell strain; 10 mg/kg iv day 0, 4, 8, 12) | tumor volume (ME180 cell strain; 10 mg/kg iv day 0, 4, 8, 12) | change in the body weight (ME180 cell strain; any dosage tested (1, 3, 10 mg/kg)) | G2/M phase arrest in tumor tissue (Phospho-Histon H3 (Ser10) staining) (ME180 cell strain; single tail vein dose 10 mg/kg, tumor extracted after 24 hours)
1 | clone 01a033 (antibody) heavy: QVQLKQSGPELVKPGASVKISCKASGYSFTGYYMHWVKQSPEKSLEWIGEINPSTGDTTYNQKFKAKATLTVDKSSSTAYMQLKSLTSEDSAVYYCAREKRDDGVFAYWGQGTLVTVSSAKTTAPSVYPLAPVCGDTTGSSVTLGCLVKGYFPEPVTLTWNSGSLSSGVHTFPAVLQSDLYTLSSSVTVTSSTWPSQSITCNVAHPASSTKVDKKIEPRGPTIKPCPPCKCPAPNLLGGPSVFIFPPKIKDVLMISLSPIVTCVVVDVSEDDPDVQISWFVNNVEVHTAQTQTHREDYNSTLRVVSALPIQHQDWMSGKEFKCKVNNKDLPAPIERTISKPKGSVRAPQVYVLPPPEEEMTKKQVTLTCMVTDFMPEDIYVEWTNNGKTELNYKNTEPVLDSDGSYFMYSKLRVEKKNWVERNSYSCSVVHEGLHNHHTTKSFSRTPGK light: DIVMSQSPKSMSMSVGERVALSCKASENVGTYVSWYQQKPEQSPKLLIYGASNRYTGVPDRFTGSGSATDFTLTISSVQAEDLADYYCGQSYSYPLTFGAGTKLELKRADAAPTVSIFPPSSEQLTSGGASVVCFLNNFYPKDINVKWKIDGSERQNGVLNSWTDQDSKDSTYSMSSTLTLTKDEYERHNSYTCEATHKTSTSPIVKSFNRNEC | high antitumor effect | high affinity | low effect of suppressing growth | – | – | – | – | – | – | – | – | – | – | – | –
2 | GPC1 ADC (conjugate) heavy: QVQLKQSGPELVKPGASVKISCKASGYSFTGYYMHWVKQSPEKSLEWIGEINPSTGDTTYNQKFKAKATLTVDKSSSTAYMQLKSLTSEDSAVYYCAREKRDDGVFAYWGQGTLVTVSSAKTTAPSVYPLAPVCGDTTGSSVTLGCLVKGYFPEPVTLTWNSGSLSSGVHTFPAVLQSDLYTLSSSVTVTSSTWPSQSITCNVAHPASSTKVDKKIEPRGPTIKPCPPCKCPAPNLLGGPSVFIFPPKIKDVLMISLSPIVTCVVVDVSEDDPDVQISWFVNNVEVHTAQTQTHREDYNSTLRVVSALPIQHQDWMSGKEFKCKVNNKDLPAPIERTISKPKGSVRAPQVYVLPPPEEEMTKKQVTLTCMVTDFMPEDIYVEWTNNGKTELNYKNTEPVLDSDGSYFMYSKLRVEKKNWVERNSYSCSVVHEGLHNHHTTKSFSRTPGK light: DIVMSQSPKSMSMSVGERVALSCKASENVGTYVSWYQQKPEQSPKLLIYGASNRYTGVPDRFTGSGSATDFTLTISSVQAEDLADYYCGQSYSYPLTFGAGTKLELKRADAAPTVSIFPPSSEQLTSGGASVVCFLNNFYPKDINVKWKIDGSERQNGVLNSWTDQDSKDSTYSMSSTLTLTKDEYERHNSYTCEATHKTSTSPIVKSFNRNEC | – | high affinity | – | significantly delayed | Tumor hardly grew | Tumor hardly grew | transient decrease in body weight | Significant toxicity was not observed | about the same | slight antitumor effect | slight antitumor effect | significant antitumor effect | tumor volume was significantly reduced | significant change in the body weight was not observed | resulted in G2/M phase arrest
